Results: patent US9682130B2 (priority 2015, dated 2017)
Where two headings read alike, the source gives them in different places.

Key:
[1] = tested on: Human Adenovirus 8 (Ad8 strain 13306); assay: Neutral red lysosomal uptake assay, Adenovirus 8; type: cell-based; conditions: Adenovirus 8, MA-104 cells
Procedure: To assess in vitro cytotoxicity, both a cytopathic effects of a virus (CPE) regression assay and a neutral red lysosomal uptake cell viability assay was performed essentially as described in, e.g., Repetto, et al., Neutral Red Uptake Assay for the Estimation of Cell Viability/Cytotoxicity, Nat. Protoc. 3: 1125-1131 (2008), the content of which is hereby incorporated by reference in its entirety. Ninety-six-well plates were seeded with MA-104 cells at 1×10^5 cells/mL and incubated overnight at 37° C. with 5% CO2. […] Each dilution was added to 5 wells of a 96-well plate with 80% to 100% confluent cells, and three wells of each dilution were then infected with one of the two test viruses. Two wells remained uninfected as controls for toxicity. Six wells per plate were set aside as uninfected, untreated cell controls, and six wells per plate were infected with no treatment as virus controls. […] Assay plates were incubated at 37° C. with 5% CO2. […] After CPE reduction assay was completed, a neutral red lysosomal uptake assay was conducted by filling each well with 0.011% (m/v) neutral red, a vital stain. The plates then were incubated for about 2 hours at 37° C. in the dark. […] The plates were then read on a spectrophotometer at 540 nm to quantify the neutral red taken up by the healthy cells. […]

Adenovirus serotype Ad5 = assay: Ad5/NZW rabbit ocular replication model, plaque assay of ocular samples; type: in vivo; conditions: for Ad5-positive ocular samples, percent, Day 1 / Ad5-positive ocular samples, percent, Day 3 / Ad5-positive ocular samples, percent, Day 4 / Ad5-positive ocular samples, percent, Day 5 / Ad5-positive ocular samples, percent, Day 7 / Ad5-positive ocular samples, percent, Day 11 / Ad5-positive ocular samples, percent, Day 14 / Ad5-positive ocular samples, percent, Total / Ad5-positive ocular samples/total eyes, Day 1 / Ad5-positive ocular samples/total eyes, Day 3 / Ad5-positive ocular samples/total eyes, Day 4 / Ad5-positive ocular samples/total eyes, Day 5 / Ad5-positive ocular samples/total eyes, Day 7 / Ad5-positive ocular samples/total eyes, Day 11 / Ad5-positive ocular samples/total eyes, Day 14 / Ad5-positive ocular samples/total eyes, Total: 8x daily 9 days
Procedure: See, e.g., Romanowski, et al., The In Vitro and In Vivo Evaluation of ddC as a Topical Antiviral for Ocular Adenovirus Infections, Invest. Ophthalmol. Vis. Sci. 50: 5295-5299 (2009), which is hereby incorporated by reference in its entirety.
To conduct this in vivo assay, 25 NZW rabbit were anesthetized using the general anesthesia ketamine and xylazine and the topical anesthesia proparacaine. Each rabbit was then topically inoculated with 50 μL of Adenovirus serotype Ad5 (3×10^7 pfu/mL) in both eyes after corneal epithelial scarification (12 cross-hatched strokes of a 25 sterile needle). Eyes were closed and gently rubbed for 5 seconds to ensure contact of the virus on all ocular surfaces. […] All topical solutions (37 μL drops) were instilled with an electronic pipette (EDP; Rainin, Oakland, Calif.) set in the multi-dispense mode. Ocular swabbing to recover adenovirus from tear film and corneal and conjunctival surfaces, after topical anesthesia with proparacaine, was performed at least 1 hour after the final dose on days 0, 1, 3, 4, 5, 7, 9, 11, and 14 after inoculation. The ocular samples from each eye was placed individually into tubes containing 1 mL of medium and were frozen at −70° C. pending viral plaque assay.
The ocular samples were assayed for Ad5 titers by performing a plaque reduction assay. Samples were diluted 1:10 and these dilutions were inoculated onto duplicate wells of a 24 well multi-plate containing A549 monolayers. The virus was adsorbed for 3 hours at 37° C. in a 5% CO2-water vapor atmosphere without constant rocking. After adsorption, 1 mL of medium plus 0.5% methylcellulose was added to each well, and the plates were incubated at 37° C. in a 5% CO2-water vapor atmosphere. After 7 days, the cells were stained with 0.5% gentian violet, and the number of plaques counted using a dissecting microscope (25×). The viral titers were then calculated, and will be expressed as plaque-forming units per milliliter (PFU/mL). Data from the study were analyzed using analysis of variance (ANOVA) with Fisher's pair-wise comparisons and X^2 analyses using True Epistat and/or Minitab statistical software. Significance was established at the P≦0.05 confidence level.

MA-104 cells [2] = tested on: MA-104 cells
NFκB = conditions: small in vitro study; cited from earlier work
MA-104 cells [3] = assay: Toxicity in uninfected wells (CC50); conditions: for Yield Reduction Assay CC50: yield reduction columns

B1: Ranpirnase (protein, UniProt P22069 1-104, looked up)
Protein P-30: QDWLTFQKKHITNTRDVDCDNIMSTNLFHCKDKNTFIYSRPEPVKAICKGIIASKNVLTTSEFYLSDCNVTSRPCKYKLKKSTNKFCVTCENQAPVHFVGVGSC
notes: amphibian ribonuclease originally isolated from oocytes and/or early embryos of Rana pipiens; pancreatic ribonuclease (RNase A) superfamily, about 12 kD
Question: Which “Neutral Red Assay EC50” value [1] does the source give for B1 here?
Answer: <100 µg/mL

Question: And the “Ad5-positive ocular samples, percent, Day 1” value (Adenovirus serotype Ad5; 0.25 μM Ranpirnase (group 1C))?
Answer: 100%

Question: And the “Ad5-positive ocular samples, percent, Day 3” value (Adenovirus serotype Ad5; 0.25 μM Ranpirnase (group 1C))?
Answer: 100%

Question: And the “Ad5-positive ocular samples, percent, Day 4” value (Adenovirus serotype Ad5; 0.25 μM Ranpirnase (group 1C))?
Answer: 100%

Question: And the “Ad5-positive ocular samples, percent, Day 5” value (Adenovirus serotype Ad5; 0.25 μM Ranpirnase (group 1C))?
Answer: 100%

Question: What about the “Ad5-positive ocular samples, percent, Day 7” value (Adenovirus serotype Ad5; 0.25 μM Ranpirnase (group 1C)) of the same molecule?
Answer: 88%

Question: What about the “Ad5-positive ocular samples, percent, Day 11” value (Adenovirus serotype Ad5; 0.25 μM Ranpirnase (group 1C)) of the same molecule?
Answer: 38%

Question: And the “Ad5-positive ocular samples, percent, Day 14” value (Adenovirus serotype Ad5; 0.25 μM Ranpirnase (group 1C))?
Answer: 0%

Question: What about the “Ad5-positive ocular samples, percent, Total” value (Adenovirus serotype Ad5; 0.25 μM Ranpirnase (group 1C)) of the same molecule?
Answer: 76.7%

Question: And the “Ad5-positive ocular samples/total eyes, Day 1” value (Adenovirus serotype Ad5; 0.25 μM Ranpirnase (group 1C))?
Answer: 10/10

Question: What about the “Ad5-positive ocular samples/total eyes, Day 3” value (Adenovirus serotype Ad5; 0.25 μM Ranpirnase (group 1C)) of the same molecule?
Answer: 10/10

Question: What about the “Ad5-positive ocular samples/total eyes, Day 4” value (Adenovirus serotype Ad5; 0.25 μM Ranpirnase (group 1C)) of the same molecule?
Answer: 8/8

Question: And the “Ad5-positive ocular samples/total eyes, Day 5” value (Adenovirus serotype Ad5; 0.25 μM Ranpirnase (group 1C))?
Answer: 8/8

Question: What about the “Ad5-positive ocular samples/total eyes, Day 7” value (Adenovirus serotype Ad5; 0.25 μM Ranpirnase (group 1C)) of the same molecule?
Answer: 7/8

Question: And the “Ad5-positive ocular samples/total eyes, Day 11” value (Adenovirus serotype Ad5; 0.25 μM Ranpirnase (group 1C))?
Answer: 3/8

Question: What about the “Ad5-positive ocular samples/total eyes, Day 14” value (Adenovirus serotype Ad5; 0.25 μM Ranpirnase (group 1C)) of the same molecule?
Answer: 0/8

Question: What about the “Ad5-positive ocular samples/total eyes, Total” value (Adenovirus serotype Ad5; 0.25 μM Ranpirnase (group 1C)) of the same molecule?
Answer: 46/60

Question: What about the “Ad5-positive ocular samples, percent, Day 1” value (Adenovirus serotype Ad5; 2.5 μM Ranpirnase (group 1B)) of the same molecule?
Answer: 100%

Question: And the “Ad5-positive ocular samples, percent, Day 3” value (Adenovirus serotype Ad5; 2.5 μM Ranpirnase (group 1B))?
Answer: 100%

Question: What about the “Ad5-positive ocular samples, percent, Day 4” value (Adenovirus serotype Ad5; 2.5 μM Ranpirnase (group 1B)) of the same molecule?
Answer: 100%

Question: And the “Ad5-positive ocular samples, percent, Day 5” value (Adenovirus serotype Ad5; 2.5 μM Ranpirnase (group 1B))?
Answer: 80%

Question: And the “Ad5-positive ocular samples, percent, Day 7” value (Adenovirus serotype Ad5; 2.5 μM Ranpirnase (group 1B))?
Answer: 70%

Question: And the “Ad5-positive ocular samples, percent, Day 11” value (Adenovirus serotype Ad5; 2.5 μM Ranpirnase (group 1B))?
Answer: 0%

Question: What about the “Ad5-positive ocular samples, percent, Day 14” value (Adenovirus serotype Ad5; 2.5 μM Ranpirnase (group 1B)) of the same molecule?
Answer: 0%

Question: And the “Ad5-positive ocular samples, percent, Total” value (Adenovirus serotype Ad5; 2.5 μM Ranpirnase (group 1B))?
Answer: 64.3%

Question: And the “Ad5-positive ocular samples/total eyes, Day 1” value (Adenovirus serotype Ad5; 2.5 μM Ranpirnase (group 1B))?
Answer: 10/10

Question: And the “Ad5-positive ocular samples/total eyes, Day 3” value (Adenovirus serotype Ad5; 2.5 μM Ranpirnase (group 1B))?
Answer: 10/10

Question: And the “Ad5-positive ocular samples/total eyes, Day 4” value (Adenovirus serotype Ad5; 2.5 μM Ranpirnase (group 1B))?
Answer: 10/10

Question: And the “Ad5-positive ocular samples/total eyes, Day 5” value (Adenovirus serotype Ad5; 2.5 μM Ranpirnase (group 1B))?
Answer: 8/10

Question: What about the “Ad5-positive ocular samples/total eyes, Day 7” value (Adenovirus serotype Ad5; 2.5 μM Ranpirnase (group 1B)) of the same molecule?
Answer: 7/10

Question: What about the “Ad5-positive ocular samples/total eyes, Day 11” value (Adenovirus serotype Ad5; 2.5 μM Ranpirnase (group 1B)) of the same molecule?
Answer: 0/10

Question: What about the “Ad5-positive ocular samples/total eyes, Day 14” value (Adenovirus serotype Ad5; 2.5 μM Ranpirnase (group 1B)) of the same molecule?
Answer: 0/10

Question: And the “Ad5-positive ocular samples/total eyes, Total” value (Adenovirus serotype Ad5; 2.5 μM Ranpirnase (group 1B))?
Answer: 45/70

Question: What about the “Ad5-positive ocular samples, percent, Day 1” value (Adenovirus serotype Ad5; 25 μM Ranpirnase (group 1A)) of the same molecule?
Answer: 100%

Question: And the “Ad5-positive ocular samples, percent, Day 3” value (Adenovirus serotype Ad5; 25 μM Ranpirnase (group 1A))?
Answer: 100%

Question: What about the “Ad5-positive ocular samples, percent, Day 4” value (Adenovirus serotype Ad5; 25 μM Ranpirnase (group 1A)) of the same molecule?
Answer: 100%

Question: What about the “Ad5-positive ocular samples, percent, Day 5” value (Adenovirus serotype Ad5; 25 μM Ranpirnase (group 1A)) of the same molecule?
Answer: 90%

Question: What about the “Ad5-positive ocular samples, percent, Day 7” value (Adenovirus serotype Ad5; 25 μM Ranpirnase (group 1A)) of the same molecule?
Answer: 30%

Question: And the “Ad5-positive ocular samples, percent, Day 11” value (Adenovirus serotype Ad5; 25 μM Ranpirnase (group 1A))?
Answer: 0%

Question: What about the “Ad5-positive ocular samples, percent, Day 14” value (Adenovirus serotype Ad5; 25 μM Ranpirnase (group 1A)) of the same molecule?
Answer: 0%

Question: And the “Ad5-positive ocular samples, percent, Total” value (Adenovirus serotype Ad5; 25 μM Ranpirnase (group 1A))?
Answer: 60%

Question: What about the “Ad5-positive ocular samples/total eyes, Day 1” value (Adenovirus serotype Ad5; 25 μM Ranpirnase (group 1A)) of the same molecule?
Answer: 10/10

Question: And the “Ad5-positive ocular samples/total eyes, Day 3” value (Adenovirus serotype Ad5; 25 μM Ranpirnase (group 1A))?
Answer: 10/10

Question: What about the “Ad5-positive ocular samples/total eyes, Day 4” value (Adenovirus serotype Ad5; 25 μM Ranpirnase (group 1A)) of the same molecule?
Answer: 10/10

Question: What about the “Ad5-positive ocular samples/total eyes, Day 5” value (Adenovirus serotype Ad5; 25 μM Ranpirnase (group 1A)) of the same molecule?
Answer: 9/10

Question: What about the “Ad5-positive ocular samples/total eyes, Day 7” value (Adenovirus serotype Ad5; 25 μM Ranpirnase (group 1A)) of the same molecule?
Answer: 3/10

Question: What about the “Ad5-positive ocular samples/total eyes, Day 11” value (Adenovirus serotype Ad5; 25 μM Ranpirnase (group 1A)) of the same molecule?
Answer: 0/10

Question: What about the “Ad5-positive ocular samples/total eyes, Day 14” value (Adenovirus serotype Ad5; 25 μM Ranpirnase (group 1A)) of the same molecule?
Answer: 0/10

Question: And the “Ad5-positive ocular samples/total eyes, Total” value (Adenovirus serotype Ad5; 25 μM Ranpirnase (group 1A))?
Answer: 42/70

Question: And the “Antiviral efficacy compared to the Saline (negative) control” value (Adenovirus serotype Ad5; 25, 2.5 and 0.25 μM Ranpirnase, Ad5/NZW rabbit ocular model)?
Answer: dose dependent antiviral efficacy

Question: And the “CPE Reduction Assay CC50” value (MA-104 cells [2])?
Answer: 75 µg/mL

Question: And the “Translocation of NFκB into the nucleus” value (NFκB)?
Answer: inhibits translocation of NFκB into the nucleus

Question: What about the “Neutral Red Assay CC50” value (MA-104 cells [3]; Adenovirus 5 section) of the same molecule?
Answer: 52 µg/mL

Question: What about the “Yield Reduction Assay CC50” value (MA-104 cells [3]; Adenovirus 5 section) of the same molecule?
Answer: 52 µg/mL

Question: And the “CPE Reduction Assay CC50” value (MA-104 cells [3]; Adenovirus 8 section, CPE scoring)?
Answer: 59 µg/mL

Question: What about the “Neutral Red Assay CC50” value (MA-104 cells [3]; Adenovirus 8 section) of the same molecule?
Answer: 44 µg/mL

Question: What about the “Yield Reduction Assay CC50” value (MA-104 cells [3]; Adenovirus 8 section) of the same molecule?
Answer: 59 µg/mL
